In the RNAGym collection of RNA variant scans (doi:10.1021/acssynbio.7b00057):

B1: Pistol ribozyme (parent)
chain: GGGUCGUUGUUCCAUAAUCGCGUGGAUAUGGCACGCAAGUUUCUACCGGGCACCGUAAAUGUCCGACUGGAGCCGUUCGGGCGGCUAUAAACAGACCUCAGGCCCGAAGCGUGGCGGCACCUGCCGCCGGUGGUAAAAAAGAUCGGAAGAGCACACGUCU

Variants of: B1
Experiment: aptazyme ON/OFF ratio, guanine; higher = stronger switching; co-transcriptional cleavage with and without guanine

Variant | aptazyme ON/OFF ratio
U8A G9C U11G C12G C13G | 1.14
U7A U8C C12A | 1.42
U7A G9A U10G C12G C13U | 1.18
U7C U8G G9U U10A U11C C13A | 1.05
U7A U8G G9C U10C U11A | 1.03
U7G U8A G9U U10G U11C C13A | 1.06
U8A G9C U10C U11G C13U | 1.08
U7C U8G G9A U10G U11A C12A C13A | 1.18
U7A U8G G9U U10G U11G C12G | 1.35
U7C U8A G9U U10C U11C C12A C13U | 1.12
U7G U8A U10G U11A C13G | 1.23
U7A G9A U10A U11A | 1.34
U7A U8A G9A U10C U11A C12U C13A | 1.1
U7A U8C U10A U11A C12A C13A | 1.07
U7G G9U U10G U11G C12A | 1.11
U7G U8A G9U U10A U11A C12A C13A | 1.13
U8C G9U U10C U11A C12U | 1.17
U7A U8A G9U U10A C12U C13A | 1.05
U7A U8C G9A U11A C12G C13G | 1.21
U8G G9U U10G U11A C12G C13G | 1.17
U7C U8C G9C U10A U11C C12G | 1.21

Variant | aptazyme ON/OFF ratio
U7C G9U U10G U11C C12A C13A | 1.17
U7A U8G G9C U10G U11A | 1.07
U7G U8C G9C U10C U11A C12G | 1.11
U7G G9A U11C | 1.17
U7G G9A U11A | 2.46
U7A U8A G9A U10G U11C C12G C13A | 1.24
U7C U8A G9A C12G C13G | 1.22
U7A G9C U10C U11A C12A C13G | 1.06
U7A G9C U10C U11A C12A C13U | 1.03
U8A U11G C13A | 1.03
U8A U11G C13U | 1.04
U7G U8C G9U C12G C13A | 1.18
U7C U8G G9C U11A C12U C13A | 1.19
U8C G9A U10C C12U C13U | 1.21
U7G U8A G9U U10A U11C C12G C13A | 1.06
U7G U10A U11G C13G | 1.14
U7C U8C U10G U11G C12U C13G | 1.12
U7C U8C G9U U10C C12U | 1.32
U7A U8A G9A U10C C12A | 1.1
G9A U10G C13U | 1.52
U7C U8A G9C U10C U11C C13U | 1.03

Variant | aptazyme ON/OFF ratio
U7A U8G G9C U10C U11A C12G C13U | 1.17
U7G U8G G9U U10G U11G C12G | 1.16
U8G G9C U11A C12G C13U | 1.07
U7G G9U U10G U11A C12A C13U | 1.16
U7C G9C U10A U11A C12G | 1.09
U7A U8C U11G C12A C13U | 1.16
U8A G9A U10G C12G C13G | 1.1
U8G G9A U10A C12U C13A | 1.15
U8A G9U U10C U11A C12A | 1.11
U7A U8G U10A U11A C12A C13U | 1.12
U7G G9A U11C C13G | 1.09
U7C U8A G9U C12A C13A | 1.14
U7C U8G G9A U10G U11C C12A C13A | 1.35
U7C U8G G9A U10G U11C C12A C13G | 1.1
U7C G9C U10A U11C C12A C13G | 1.07
U7C U8G G9A U10A U11C C12G C13G | 1.34
U8G G9U U10C U11G C12A C13U | 1.12
U7A U8C G9U U10C C13G | 1.06
U7A U8C G9A U10G U11G C12A C13G | 1.15
U7C U10C U11G C12A C13A | 1.11
U7C G9C U11C C12U | 1.04

Variant | aptazyme ON/OFF ratio
U8A C12A | 1.3
U8C G9U U10A U11C C12A C13G | 1.08
U7G G9U U10A U11A C12G C13U | 1.42
U7G U8C G9U U10C U11A C12G C13U | 1.2
U8G G9A U10G U11C | 1.05
U8G U10G U11G C12G C13U | 1.29
U7A U8A U10A U11C C12A | 1.04
U7G U8A G9U U10A U11G C13A | 1.09
U7C G9C U11G C12G | 1.13
G9U U10A U11C C12U C13G | 1.39
U7G G9C U10C U11C C12G C13A | 1.08
U7A G9A U10C C13A | 1.06
U7G G9A U10G U11C C12A C13G | 1.06
U7G G9C U10C U11C | 1.17
U7C G9C U10G C12A C13U | 1.12
U7A U8C G9A U10A U11G | 1.26
U7G U8C G9U U10C U11G C12G C13A | 1.08
U7A U8G G9U U11G C12U | 1.26
U7G U8A G9A U10C C12U C13A | 1.08
U8G G9U U10C U11A C12A | 1.14
